Where a chain is given by its changes, count along the chain named. In names and notes the source's numbering stands.
B1: humanized B1-176 with heavy chain Hu-176 VH-1 and light chain Hu-176 VL (antibody, V domains shown)
VH: EVQLVESGGGLVQPGGSLRLSCAASGFSFSSSYCMCWVRQAPGKGLEWVSCIYTDSSGATYYASWAKGRFTISRHNSKNTLYLQMNSLRAEDTAVYYCARGWDYEDPGYTDTTYFSLWGRGTLVTVSS
VL: DIQLTQSPSFLSASVGDRVTITCQASQTIYTNLAWYQQKPGKAPKLLIYAASTLASGVPSRFSGSGSGTEFTLTISSLQPEDFATYYCQSYYGSSTTGNGFGGGTKVEIK
B2: Hu B1-176-LALAPG (antibody, V domains shown)
VH: B1 VH with W48L
VL: B1 VL
notes: Human IgG1 with L234A, L235A and P329G
B3: B1-#5 (antibody, V domains shown)
VH: EQSLEESGGDLVKPEGSLTLTCTASELSFSSAYYMCWVRQAPGKGLEWIGCIYSGDGDTYYANWAKGRFTISKTSSTTVTLQMTSLTDADTATYFCARALDSHYSSFDLWGPGTLVTISS
VL: ELDMTQTPSSVSAAVGDTVTIKCQASQSIYRYLAWYQQKPGQRPSLLIYYGSDLASGVPSRFSGSGSGTEFTLTISDLECADAASYYCQTTYDDYHNGWAFGGGTNVEIN
notes: recombinant rabbit IgG
B4: B1-#3 (antibody, V domains shown)
VH: QSLEESEGDLVKPEGSLTLTCKASGFDFSSDAMCWVRQAPGKGLEWIGCIYNGDEITDHASWAKGRFTISKTSPTTVTLQMTSLTVADTATYFCARAVYSDGGAGYPYMYGMDLWGPGTLVTVSS
VL: ELDMTQTPASVEAAVGGTVTIKCQASQNIYSYLVWYQQKPGQPPKLLISKASTLASGVSSRFKGSGSGTEFTLTINDLECADAATYYCQTNYFSSTSHFGVFTFGGGTELEIK
notes: IgG; also called antagonistic B1-3
B5: B1-#204 (antibody, V domains shown)
VH: QSVKESGGGLVKPGGTLTLTCTASGFSFSSSYCMCWVRQAPGKGLELIACIYTDSSGATYYASWAKGRFTISKSSSTTITLQMTSLTAADTATYFCARGWDYEDPGYTDTTYFSLWGPGTLVTVSS
VL: ELDMTQTPSSVEAAVGGTVTIKCQASQTIYTNLAWYQQKPGQPPNLLIYAASTLASGVSSRFKGSGSGTEFTLTISDLECADAATYYCQSYYGSSTTGNGFGGGTEVEIN
notes: recombinant rabbit IgG
B6: B1-#190 (antibody, V domains shown)
VH: QEQLKESGGDLVKPEGSLTLTCTASGFSFSSDYWVCWVRQAPGKGPEWIGCIYTGDDDTYYASWAKGRFTISKTSSTTVTLEVTSLTAADTATYFCARGLTIGTAELYFWGPGTVVTVSS
VL: ELVLTQTPSPVSAAVGGTVTINCQASQSISNELSWYQQKPGQPPKLLIYLASTLDSGVPSRFKGSGSGTQFTLTISDLECADAATYYCQSHYYGGSSDYGWAFGGGTEVVVK
notes: recombinant rabbit IgG
B7: B1-#198 (antibody, V domains shown)
VH: QSLEESGGGLVKPEGSLTLTCTASGFDLSNNYYICWVRQAPGKGLELIACVDSDLTDSADYASWAKGRFTISKTSSTTVTLQMTSLTAADTATYFCAGSGSGYYYYYGMDLWGPGTLVTISS
VL: ELDMTQTPASVSEPVGGTVTIKCQASQSIGSYLAWYQQKPGQPPKLLAFYASTLKSGVPPRFKGSGSGTEFTLTISDLECADAATYYCQSNRLSSSDVNAFGGGTEVEIK
notes: recombinant rabbit IgG
B8: B1-#27 (antibody, V domains shown)
VH: EQSVKESGGGLVQPEGSLTLTCTVSGFSFSGSYWICWVRQAPGKGLEWIACIYGDSIATYYPNWAKGRFTISKTSSTTVTLQMASLTGADTATYFCARDRNGGSGAYGWDLWGPGTLVTISS
VL: ELDLTQTPASVSEPVGGTVTITCQASQSISSYLSWYQQTPGQPPKLLIYKASTLASGVPSRFKGSGSGTEFTLTISDLECADAATYYCQSYYYISATVDNTFGGGTEVEIK
notes: recombinant rabbit IgG
B9: B1-#178-2 (antibody, V domains shown)
VH: QKQLVESGGGLVQPEGSLALTCTASGFSFSSSYWICWVRQAPGKGLEWIACIYAGSSGSTYYASWVNGRFTVFKTSSTTVTLQMTSLTAADTATYFCARGGTSYRLDLWGPGTLVTVSS
VL: ELVLTQTPSSKSVAVGDTVTINCQASDNVYSNNYTSWFQQKPGQPPKQLLYYAAYRASGVPSRFKGSGSGTEFTLSISDVVCDDAATYYCSGHKDYSDDGSTFGGGTEVEIK
notes: recombinant rabbit IgG
B10: B1-#209 (antibody, V domains shown)
VH: SQSVEESGGDLVKPGGTLTLTCTASRIDLNNYYYISWVRQAPGKGLEWIGVVATDSSVTWYASWAKGQFTISKTSSTTVTLQMTSLTAADTATYFCARGSGAATNGVWWVMGDGMDLWGPGTLVTVSS
VL: ELVMTQTPASVSEPVGGTVTIKCQASQSISSYLSWYQQKPGQPPKRLIYKASTLASGVPSRFKGSGSGTEFTLTISGVQCADAATYYCQNNYHSGSSNGGGFAFGGGTEVEIK
notes: recombinant rabbit IgG
B11: Hu B1-176-N297A (antibody, V domains shown)
VH: B1 VH with W48L
VL: B1 VL
notes: Human IgG1 with N297A
B12: B1-176-N297A (antibody, V domains shown)
VH: B5 VH with V3L, K4E, G7E
VL: B5 VL with M4L, N110K

Molecular target: T1, recombinant human LILRB1 protein (human, UniProt Q8NHL6 24-461)
T1 construct: ELISA and Octet methods say only 'recombinant LILRB1'; also called recombinant LILRB1; LILRB1 recombinant proteins
Assay: ELISA
Method: (§1) ELISA. LILRB1 recombinant proteins (50 ng/well, 100 μL per well) were coated on Corning 96-well ELISA plates at 37° C. for 4 hrs. Plates were blocked for 2 hrs at 37° C. with 5% non-fat milk. After washing with PBST, 100 μL of serial diluted anti-LILRB1 antibodies were added and incubated for 60 min at 37° C. […] Plates were washed again with PBST for another 5 times, then the immunoreactions were developed with TMB substrates (Sigma, Cat #T0440) and stopped by the addition of 2 M H_2SO_4 before the plate was read at 450 nm.

T1 sequence (Q8NHL6 24-461 limits assumed): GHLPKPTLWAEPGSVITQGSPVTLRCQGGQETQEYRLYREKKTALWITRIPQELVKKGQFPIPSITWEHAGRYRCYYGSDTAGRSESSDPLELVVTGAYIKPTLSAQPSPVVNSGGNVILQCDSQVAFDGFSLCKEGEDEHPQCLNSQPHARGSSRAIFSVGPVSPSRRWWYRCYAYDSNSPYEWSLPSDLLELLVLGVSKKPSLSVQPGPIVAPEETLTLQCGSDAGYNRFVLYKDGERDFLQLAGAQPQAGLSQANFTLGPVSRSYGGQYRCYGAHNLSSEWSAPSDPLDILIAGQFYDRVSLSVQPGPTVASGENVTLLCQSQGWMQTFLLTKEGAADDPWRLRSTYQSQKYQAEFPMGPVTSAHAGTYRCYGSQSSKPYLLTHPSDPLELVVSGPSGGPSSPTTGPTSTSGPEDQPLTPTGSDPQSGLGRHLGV

| binding result | Binder |
| --- | --- |
| binds | B1 |

Molecular target: T1, recombinant human LILRB1 protein
Assay: ELISA
Remark: another data set of the same source
Method: as §1

| EC50 (read off the curve) [ng/mL] | Binder |
| --- | --- |
| ~40 | B2 |

Molecular target: T2, LILRA1 (human, UniProt O75019)
T2 construct: not the cell-surface form of MOLECULES; also called LILRA1 protein of the ELISA and Octet specificity tests
Assay: Octet RED96, cross-reactivity table

T2 sequence (O75019 17-461 limits assumed): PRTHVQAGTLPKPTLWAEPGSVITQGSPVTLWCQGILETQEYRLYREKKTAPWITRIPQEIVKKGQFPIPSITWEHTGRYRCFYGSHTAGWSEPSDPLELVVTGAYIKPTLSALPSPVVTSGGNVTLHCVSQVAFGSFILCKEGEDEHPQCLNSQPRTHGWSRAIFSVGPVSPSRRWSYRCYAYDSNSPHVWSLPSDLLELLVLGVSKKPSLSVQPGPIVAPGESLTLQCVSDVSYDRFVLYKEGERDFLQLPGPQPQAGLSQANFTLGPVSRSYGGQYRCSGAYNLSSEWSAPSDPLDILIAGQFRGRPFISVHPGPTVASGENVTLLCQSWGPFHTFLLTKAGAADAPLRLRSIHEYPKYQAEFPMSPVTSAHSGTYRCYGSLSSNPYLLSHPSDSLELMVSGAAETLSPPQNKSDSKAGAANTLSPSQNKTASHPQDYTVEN

| binding result | Binder |
| --- | --- |
| binds | B3 |
| binds | B4 |
| no binding (tested: not given) | B5 |
| binds | B6 |

Molecular target: T3, recombinant LILRB1 (human, UniProt Q8NHL6 24-461)
T3 construct: LILRB1-Fc proteins were also made; also called LILRB1 recombinant proteins
Assay: ELISA, coated recombinant LILRB1, antibody titration;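 also: serially diluted anti-LILRB1 antibodies incubated 60 min at 37 °C on plates coated with 50 ng/well recombinant protein, TMB colorimetric development read as absorbance at 450 nm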
Method: as §1

T3 sequence (Q8NHL6 24-461 limits assumed): as the sequence (Q8NHL6 24-461 limits assumed) above

| EC50 [ng/mL] | Binder |
| --- | --- |
| 9.42 | B7 |
| 6.02 | B3 |
| 7.94 | B8 |
| 14.2 | B9 |
| 7.37 | B5 |
| 11 | B10 |
| 6.78 | B6 |

Molecular target: T1, recombinant human LILRB1 protein
Assay: Octet RED96, LILRB1 at 100, 33.3, 11.1 and 3.7 nM
Method: (§2) Following a short baseline in kinetics buffer for 20 s, the loaded biosensors were exposed to solutions of recombinant LILRB1 in a range of concentrations (0-500 nM). After background was subtracted, data was fit to a 1:1 binding model to extract an association rate ($kon$) and dissociation rate ($koff$). The KD was calculated using the ratio $koff/kon$. […] All experiments were performed with shaking at 1,000 rpm. All raw data was processed using ForteBio Octet Data Analysis Software 9.0.

| Kd [nM] | Binder |
| --- | --- |
| 0.351 | B11 |
| 0.17 | B12 |

Molecular target: T3, recombinant LILRB1
Assay: BLI (Octet RED96), antibody on biosensor, recombinant LILRB1 in solution;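 also: Background-subtracted sensorgrams fitted with a one-to-one binding model, KD taken as koff over kon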
Method: as §2

| Kd [nM] | koff [s⁻¹] | kon [M⁻¹ s⁻¹] | Binder |
| --- | --- | --- | --- |
| 0.0272 | 5.92e-06 | 218000 | B7 |
| 1.27 | 0.000161 | 127000 | B8 |
| 1.59 | 0.000273 | 172000 | B9 |
| 3.03 | 0.000209 | 68900 | B10 |

From patent US12723078 (University of Texas, dated 2026)
